The source of these data is the DeepSol protein solubility set.

The nature of the data set: soluble on expression in E. coli; label from the status in PepcDB or PDB records.
Take “NGGTSKTVKFERFEDYNGPKPARAKNMVWQIIPDASTRTNALQSKSVQAIDSVPYLSIDQLKGTHTVESVQGFGLLFAMFNNDKSNPFSDLKNRQAFLYGIDMDKVIKTALLGQATAPTSFLHKEHPQYHEAKVVYSHDAEKAKALFKETGLTKLRMLCTDHDWVKKCTPLIQESLTALGIQVDFTEKKSSDVYNTIDGKPEAYDVVIAPGDPSVFGTDPDLLMRWWYSGDTWTDTRMHWKGTEAYAKLQEVLDAGLAATSESEQKNKWHEALDIISENVPLYPLLHRKAPTAWDASTLVDFKPISLTGLSFSGVGTTQ”: the “soluble on expression in E. coli” value is “not soluble”.

With “MGSDKIHHHHHHMTQDAQCTRRTDWIPLAREVLDIEIEGIAAMRDRLNGGFVDALTLMARCTGRVVITGLGKSGLVGRKLAATLSSTGTPAFFLHPVEGAHGDMGMLRSDDVIIAISNSGETDELNAILPALRSLGASLIAMTGGLESTLAKSADVVLDTGVRREACPLNLAPTASTTAVLAMGDALAVCLIHWKSFTENDFLRFHPGGSLGHRLSMRVESLMHTENLPVVRETVRTGEALRVLDEGRLGTVLVTDGQGRLSGILTDGDVRRMVCREAGVETASPVANVMVRSPLTARKEFSVAQLIDMMEERAITVLPITGDDGLLLGVVHLHDLLGKGGVKFSR”, the “soluble on expression in E. coli” value is on record as “not soluble”.

In the case of “MMVYIMNAFDIKSTKMDVLSISLHTSDLFDLEDVLVKLGKKFQESGVVPFVLDVQEFDYPESLDLAALVSLFSRHGMQILGLKHSNERWAAAAMKYHLLFCLSHSENVKELGQVEVQKTEDGQKARKTVLITSPVRTGQQVYAEDGDLIVTGAVSQGAELIADGNIHIYAPMRGRALAGAKGDTSARIFIHSMQAELVSVAGIYRNFEQDLPNHLHKQPVQILLQDNRLVISAIGSE”, the “soluble on expression in E. coli” value is given as “not soluble”.

On to “MAHHHHHHMVEAQRGYNCVWHSWPPPLQGVNKHFNSCAASPLPLQLLVGNRILLITKDPPLKVIKFFNEFQPEEYIKPGNICTQNVTLKFGDVLNVPVSMQKDLQKRKVTFDIVDQKIVIRKDKVLAEKDKLVSAENAKLLRMLNMKIANFDITVLGYWNVNKFVSLM”, for which the “soluble on expression in E. coli” value is on record as “soluble”.

For “MIRKALLFVEKNETWKKELQIAKSVETVRKRLGQSNLNACSPRKVPLLTVKHVAKQFEYDKIHKDGPVEKWRNIFWSDESKIVLLGGKGSRSYVRRPPRTEYNPRYTFKKFKNCLKGWAFCCLEHHHHHHH”, the “soluble on expression in E. coli” value is “not soluble”.

For “DGTSQLAELVDAAAERLEVADPVAAFKWRAQLPIEDSGRVEQQLAKLGEDARSQHIDPDYVTRVFDDQIRATEAIEYSRFSDWKLNPASAPPEPPDLSASRSAIDSLNNRMLSQIWSHWSLLSAPSCAAQLDRAKRDIVRSRHLDSLYQRALTTATQSYCQALPPA”, the “soluble on expression in E. coli” value was “soluble”.

On to “MHNISAKKFLGYLKNKCLEFGVKVIEGNPAYTSIKCPNCGSRLSQLYKLADERALPSRLMYCFDCGFYADRDTVAVFNLIKRFTGLYPFSPKSNEPIAEGTVFPDEAMGLEHHHHHH”, for which the “soluble on expression in E. coli” value was “soluble”.

With “MEAHGSARLSRKRKRDGSNGEPEEGEKPLKFKRCTVGLKYPAPYADQLESMEDKQYQRVTIEEARRGTPPDRPVRVYADGIFDMFHSGHARALMQAKCLFPNTHLIVGVCSDDLTHKLKGFTVMNEDERYDAVSHCRYVDEVVRNAPWTLTPEFLTKHRIDFVAHDDIPYSSADSDDVYKHIKDAGMFAPTQRTEGISTSDIITRIVRDYDVYVRRNLQRGYTAKELNVSFINEKKYNLQERVDKVKKKVKDVEEKSKEFVQKVEEKSIDLIQKWEEKSREFIGNFLQMFGPEGALKHMLKEGKGRMLQAISPRQSPSSSPTRERSPSPTFRLPFFNKTSTPSSPSSHHSSALSGYTYAARGQAISEDEEDDED”, the “soluble on expression in E. coli” value was “soluble”.

As for “MSLAKIPVLEIFGPTIQGEGRVIGRKTMFVRTAGCDYRCSWCDSAFTWDGSAKGDIKLMTAEEIYDELKRIGGDLFNHVTISGGNPALIKGIQELVDLFQDKGIFSALETQGSKFQPWMTQIDDLTISPKPPSSTMTPDLKKLDEVITQCVPSSLNLKVVVFDDKDYDFAKMIHHRYPDIPFYLQVGNPYLSDSVDNHTEKLLERYEQLVDLVMQSNDMNHVYVLPQLHTLLWSNKKGVEGHHHHHH”, the “soluble on expression in E. coli” value was “soluble”.

As to “MLQGFRWSPHGFWVCQARFFNKKIRQRTHYEVLGVESTATLSEIKSAFYAQSKKVHPDNSSEESATASFLELKNAYDVLRRPADRRLYDYQLRGGGGRYPNGGQRYQYPNTAPQYDFSRDWSTYWSQNPDNSRSSREERDKSSREFMKSI”, the “soluble on expression in E. coli” value is “not soluble”.

In the case of “MAHHHHHHMNEPDAALEGVVDLTSNNFDSSVGKDVAALVEFYAPWCGHCKNLVPEFAKLGRAAAGAKDKVLIAKVDATAQKDLATRFEVNGYPTILFFPAGSQKPEKYSEGREAKAFVSYLNNQIKGLNLFLPREHKYVMALDQSNFDKVALDEGKDAFVLFYAPWCGHCKRLHPSFESLAKVYQNEKDLIIANVDADDKSNSEVTKRYKVEGYPTLVFFPKGNKGNPVNYEEGRTLDDMIKFVNERTGKKRTSSGDFDKTVGVDETVTNLMKEMAQSSKNKEERERLLAQIQQAVSPKALGEGAMHYIRIATNVLENGHEYISKEHERVGRLLKGSLTGPKRDSLTIRFNILSAIKGE”, the “soluble on expression in E. coli” value was “soluble”.

As for “MGSDKIHHHHHHMKKRLLLNTDDYGWDLDANAAIIDLLQSDSIHNVTLLANYCDSDVLRAISPFQDRASLGIHVCLNSGQALSGSTRSTLHDACGNFYDSKTLFQRAFFGELNYSDVLLEIKSQYYYLSDHGIDITHADSHQHIHQYPFLSGMITQALHEIGVKNIRRCRPLEVKNIRRYLIYFFYQCTKNNLNKFNSPDVLVTDFTHSGFSFSTDVQPILKKLSLSHYSTIEWMCHPAREDKAGSYLQRKKEYDFLKKCDWDILLNGTGIERSQYRYI”, the “soluble on expression in E. coli” value is given as “not soluble”.

With “EEILGSLFLKKKKKKKKKKSRNHRYFALLLPIRKMKKFFDSRREQGGSGLGSGSSGGGGSTSGLGSGYIGRVFGIGRQQVTVDEVLAEGGFAIVFLVRTSNGMKCALKRMFVNNEHDLQVCKREIQIMRDLSGHKNIVGYIDSSINNVSSGDVWEVLILMDFCRGGQVVNLMNQRLQTGFTENEVLQIFCDTCEAVARLHQCKTPIIHRDLKVENILLHDRGHYVLCDFGSATNKFQNPQTEGVNAVEDEIKKYTTLSYRAPEMVNLYSGKIITTKADIWALGCLLYKLCYFTLPFGESQVAICDGNFTIPDNSRYSQDMHCLIRYMLEPDPDKRPDIYQVSYFSFKLLKKECPIPNVQNSPIPAKLPEPVKASEAAAKKTQPKARLTDPIPTTETSIAPRQRPKAGQTQPNPGILPIQPALTPRKRATVQPPPQAAGSSNQPGLLASVPQPKPQAPPSQPLPQTQAKQPQAPPTPQQTPSTQAQGLPAQAQATPQHQQQLFLKQQQQQQQPPPAQQQPAGTFYQQQQAQTQQFQAVHPATQQPAIAQFPVVSQGGSQQQLMQNFYQQQQQQQQQQQQQQLATALHQQQLMTQQAALQQKPTMAAGQQPQPQPAAAPQPAPAQEPAIQAPVRQQPKVQTTPPPAVQGQKVGSLTPPSSPKTQRAGHRRILSDVTHSAVFGVPASKSTQLLQAAAAEASLNKSKSATTTPSGSPRTSQQNVYNPSEGSTWNPFDDDNFSKLTAEELLNKDFAKLGEGKHPEKLGGSAESLIPGFQSTQGDAFATTSFSAGTAEKRKGGQTVDSGLPLLSVSDPFIPLQVPDAPEKLIEGLKSPDTSLLLPDLLPMTDPFGSTSDAVIGKVIISVSSVMHDMCACFKNDKYLVNQSLGNSPATPEAKAI”, the “soluble on expression in E. coli” value is “soluble”.

For “MPLYRTYIEGEFLLGIWKSDETTEQLLASLEHKDWYREKLAVLSEKRKHEWLSVRVLLKALCGEEKEIAYYSSGRPYLKDGSRYISISHTRGYVAVALHSSCEVGMDIEQYGTRVRKVASRFIRSDEEPAMMEGDEVYALLLHWSAKEALFKLMGVEEVDFIRHLRIFPFSLSEEGEFEACEYRTGRQERYRVRYVTHPDFVLTWIIK”, the “soluble on expression in E. coli” value is given as “not soluble”.
